One molecule from patent publication US20260055182A1 (CIS BIOPHARMA, published 2026) can be followed below.

In assay [1] the target is T1, human FcyRI/CD64 (human, UniProt P12314 16-288, limits assumed).
T1 construct: Bought protein, reversibly immobilised for SPR; also called human CD64
Briefly: SPR; KD of LV40 over KD of Rituximab (control).
Procedure: (§1) Effect on interaction with Fc receptor was analyzed by SPR [Instrument: Biacore T200 (C1q and FcRn) and 8K+ for (FcγR)]. Analysis temperature: 25° C., sample compartment: 12° C., Sensor chips: CM3 (C1q) and C1 (FcγR and FcRn).
(§2) Concentration range was adjusted to optimal window depending on results of qualitative analysis. The study was conducted by Biaffin GmbH & Co KG (Bielefeld, Germany).

Assay [2] has as its target T2, human FcRn / FCGRT&B2M (human, UniProt P55899 24-297; P61769 21-119).
T2 construct: Bought protein, reversibly immobilised for SPR at pH 6.0; also called neonatal receptor
In words: SPR; KD of LV40 over KD of Rituximab (control). Background: Surface plasmon resonance follows binding to a sensor surface in real time, without labels.
Procedure: as §1, §2

Assay [3] has as its target T3, L1-CAM recombinant protein (His Tag), human (human, UniProt P32004 20-1120).
T3 construct: Bought protein; also called CD171; human L1-CAM; not shown: His tag
Briefly: SPR (Biacore 8K) as in Example 6, new batch of L1-CAM on the chip.

In assay [4] the target is T1, human FcyRI/CD64. In words: SPR (Biacore 8K+), receptor reversibly immobilised, antibody as analyte.
Procedure: as §1, §2
Assay [5] deals with T2, human FcRn / FCGRT&B2M. Briefly: SPR (Biacore T200), pH 6.0, FcRn reversibly immobilised, antibody as analyte.
Procedure: as §1, §2
For a further assay, the target named is T4, CD20 on HEK293 cells (human, UniProt P11836 1-297).
T4 construct: whole, on cells; Positive control target for the Rituximab biosimilar; also called clone 0038
T4 sequence (looked up): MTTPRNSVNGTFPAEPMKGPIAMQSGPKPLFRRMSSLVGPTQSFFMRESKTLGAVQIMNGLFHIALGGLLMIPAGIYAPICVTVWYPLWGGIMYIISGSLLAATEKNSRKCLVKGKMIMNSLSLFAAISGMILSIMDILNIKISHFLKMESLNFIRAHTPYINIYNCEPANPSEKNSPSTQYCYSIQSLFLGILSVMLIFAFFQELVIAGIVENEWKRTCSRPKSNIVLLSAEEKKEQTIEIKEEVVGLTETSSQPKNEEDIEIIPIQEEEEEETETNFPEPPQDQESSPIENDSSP
Briefly: cell microarray confirmation screen, control vector; cells of LV40 under CD20 are blank.

The target in a further assay is T5, EGFR on HEK293 cells (human, UniProt P00533 25-1210).
T5 construct: whole, on cells; also called hEGFR
Briefly: cell microarray confirmation screen, negative control vector; cells of LV40 under EGFR are blank.

Assay [6] concerns the target human C1q purified protein (human, UniProt P02745 23-245; P02746 28-253; P02747 29-245). Briefly: SPR (Biacore T200), C1q reversibly immobilised, antibody as analyte; table token '-' at the 120th table, row 16, column 3.
Procedure: as §1
In assay [7] the target is T6, human FcyRIIA/CD32a (H167) (human, UniProt P12318 36-218).
T6 construct: Bought protein, reversibly immobilised for SPR; also called human CD32a (H167)
T6 sequence (looked up): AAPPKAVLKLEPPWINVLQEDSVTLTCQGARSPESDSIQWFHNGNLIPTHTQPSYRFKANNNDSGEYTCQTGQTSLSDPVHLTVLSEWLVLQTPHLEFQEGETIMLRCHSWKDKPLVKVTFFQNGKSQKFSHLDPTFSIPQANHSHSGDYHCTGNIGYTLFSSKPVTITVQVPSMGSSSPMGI
In words: SPR (Biacore 8K+), receptor reversibly immobilised, antibody as analyte; table token '-' at the 120th table, row 10, column 3.
Procedure: as §1

For assay [8], the target named is T7, human FcyRIIIA/CD16a (V176) (human, UniProt P08637 17-208).
T7 construct: Bought protein, reversibly immobilised for SPR; also called human CD16a (V176)
T7 sequence (P08637 17-208 F176V limits assumed): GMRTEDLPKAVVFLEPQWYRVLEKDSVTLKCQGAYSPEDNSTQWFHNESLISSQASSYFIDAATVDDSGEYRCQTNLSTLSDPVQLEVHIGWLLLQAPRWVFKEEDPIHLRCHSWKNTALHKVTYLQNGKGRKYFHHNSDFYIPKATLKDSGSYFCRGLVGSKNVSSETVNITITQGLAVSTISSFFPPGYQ
In words: SPR (Biacore 8K+), receptor reversibly immobilised, antibody as analyte; table token '-' at the 120th table, row 12, column 3.
Procedure: as §1

T3 sequence (P32004 20-1120 limits assumed): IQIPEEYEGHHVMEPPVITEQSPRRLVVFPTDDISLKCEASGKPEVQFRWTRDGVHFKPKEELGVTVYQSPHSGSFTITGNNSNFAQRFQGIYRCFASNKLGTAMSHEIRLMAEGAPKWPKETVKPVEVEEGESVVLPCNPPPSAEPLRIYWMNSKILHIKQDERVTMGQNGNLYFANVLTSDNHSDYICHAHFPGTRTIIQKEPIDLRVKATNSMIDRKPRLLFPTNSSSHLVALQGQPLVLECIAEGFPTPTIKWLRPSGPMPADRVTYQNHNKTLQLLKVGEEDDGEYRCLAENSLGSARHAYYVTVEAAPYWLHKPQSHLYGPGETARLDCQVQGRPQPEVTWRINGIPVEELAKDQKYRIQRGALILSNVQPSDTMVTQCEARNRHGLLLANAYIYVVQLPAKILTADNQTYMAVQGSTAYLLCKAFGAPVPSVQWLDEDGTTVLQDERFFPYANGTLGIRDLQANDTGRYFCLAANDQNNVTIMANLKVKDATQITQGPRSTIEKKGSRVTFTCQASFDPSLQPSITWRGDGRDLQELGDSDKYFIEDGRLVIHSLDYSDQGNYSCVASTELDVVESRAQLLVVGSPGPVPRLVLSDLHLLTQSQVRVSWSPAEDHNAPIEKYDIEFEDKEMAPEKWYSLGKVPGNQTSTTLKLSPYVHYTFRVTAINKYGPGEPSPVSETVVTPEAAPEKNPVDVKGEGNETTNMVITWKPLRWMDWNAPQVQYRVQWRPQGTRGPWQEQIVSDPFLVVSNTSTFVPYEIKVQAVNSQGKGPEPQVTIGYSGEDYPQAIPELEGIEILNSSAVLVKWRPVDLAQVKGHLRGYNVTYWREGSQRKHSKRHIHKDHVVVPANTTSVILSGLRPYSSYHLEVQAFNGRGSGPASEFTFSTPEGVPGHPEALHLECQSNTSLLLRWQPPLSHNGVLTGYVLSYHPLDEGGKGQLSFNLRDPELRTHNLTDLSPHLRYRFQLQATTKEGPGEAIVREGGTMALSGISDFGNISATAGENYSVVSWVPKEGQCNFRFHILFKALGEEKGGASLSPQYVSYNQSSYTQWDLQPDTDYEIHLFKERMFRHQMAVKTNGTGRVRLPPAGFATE
T1 sequence (P12314 16-288 limits assumed): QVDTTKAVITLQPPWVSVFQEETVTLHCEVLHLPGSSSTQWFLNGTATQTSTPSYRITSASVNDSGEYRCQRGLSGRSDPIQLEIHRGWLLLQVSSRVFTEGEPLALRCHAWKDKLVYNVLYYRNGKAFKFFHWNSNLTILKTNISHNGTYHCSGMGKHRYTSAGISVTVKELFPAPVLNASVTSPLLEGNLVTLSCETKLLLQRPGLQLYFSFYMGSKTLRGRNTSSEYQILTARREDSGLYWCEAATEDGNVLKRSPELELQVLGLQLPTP
T2 sequence (P55899 24-297 limits assumed, chain 1 of 2): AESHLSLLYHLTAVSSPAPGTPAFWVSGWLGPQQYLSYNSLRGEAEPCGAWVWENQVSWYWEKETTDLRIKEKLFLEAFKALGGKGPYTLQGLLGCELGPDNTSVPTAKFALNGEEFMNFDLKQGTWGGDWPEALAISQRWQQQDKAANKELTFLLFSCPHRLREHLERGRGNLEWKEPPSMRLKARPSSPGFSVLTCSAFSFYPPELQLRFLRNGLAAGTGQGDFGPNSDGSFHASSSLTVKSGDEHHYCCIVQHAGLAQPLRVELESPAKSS
T2 sequence (P61769 21-119 limits assumed, chain 2 of 2): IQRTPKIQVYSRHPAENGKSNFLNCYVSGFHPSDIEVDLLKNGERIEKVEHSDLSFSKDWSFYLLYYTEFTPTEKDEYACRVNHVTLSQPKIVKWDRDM
Chain of human C1q purified protein (P02745 23-245, chain 1 of 3): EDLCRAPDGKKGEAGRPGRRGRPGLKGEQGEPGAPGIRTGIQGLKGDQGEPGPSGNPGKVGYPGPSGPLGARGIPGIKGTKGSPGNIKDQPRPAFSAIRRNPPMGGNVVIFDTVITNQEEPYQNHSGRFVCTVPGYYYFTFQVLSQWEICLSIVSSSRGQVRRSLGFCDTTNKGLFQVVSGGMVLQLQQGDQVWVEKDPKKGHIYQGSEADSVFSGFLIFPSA
Chain of human C1q purified protein (P02746 28-253, chain 2 of 3): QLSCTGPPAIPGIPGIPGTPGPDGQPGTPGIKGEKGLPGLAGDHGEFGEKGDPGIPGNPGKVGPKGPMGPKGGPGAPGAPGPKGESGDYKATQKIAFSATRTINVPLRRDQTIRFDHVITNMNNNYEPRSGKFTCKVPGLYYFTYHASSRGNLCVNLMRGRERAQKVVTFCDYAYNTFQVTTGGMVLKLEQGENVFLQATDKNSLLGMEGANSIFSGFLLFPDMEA
Chain of human C1q purified protein (P02747 29-245, chain 3 of 3): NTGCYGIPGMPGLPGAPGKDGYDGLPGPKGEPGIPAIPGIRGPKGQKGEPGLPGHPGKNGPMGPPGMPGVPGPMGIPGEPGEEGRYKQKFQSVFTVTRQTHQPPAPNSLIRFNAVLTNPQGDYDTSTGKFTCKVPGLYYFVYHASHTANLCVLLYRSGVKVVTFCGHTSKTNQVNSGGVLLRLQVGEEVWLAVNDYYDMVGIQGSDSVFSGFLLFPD
Procedure for CD20 on HEK293 cells: (§3) Vectors encoding all interactions identified in the library screen, plus control vectors encoding CD20 (positive control) and EGFR (transfection and negative control), were arrayed and expressed in HEK293 cells on new slides. Confirmation screen slides and analyses were carried out as for the library screen either after cell fixation (n=2) or in the absence of fixation (n=1). […] Binding to target-expressing cells and non-transfected cells was again assessed by fluorescence imaging.
Procedure for EGFR on HEK293 cells: as §3

B1: huCE7 LV40 (antibody, human IgG1, kappa, L234A L235A, N297A)
heavy: QVQLVQSGAEVKKPGASVKVSCKASGYTFTGYFMHWVRQAPGQGLEWIGEINPSNARTNYNERFQGRVTLTVDKSISTAYMELSRLRSDDTAVYYCARDYYGTSYNFDYWGQGTLVTVSSASTKGPSVFPLAPSSKSTSGGTAALGCLVKDYFPEPVTVSWNSGALTSGVHTFPAVLQSSGLYSLSSVVTVPSSSLGTQTYICNVNHKPSNTKVDKKVEPKSCDKTHTCPPCPAPEAAGGPSVFLFPPKPKDTLMISRTPEVTCVVVDVSHEDPEVKFNWYVDGVEVHNAKTKPREEQYASTYRVVSVLPVLHQDWLNGKEYKCKVSNKALPASIEKTISKAKGQPREPQVYTLPPSREEMTKNQVSLTCLVKGFYPSDIAVEWESNGQPENNYKTTPPVLDSDGSFFLYSKLTVDKSRWQQGNVFSCSVMHEALHNHYTQKSLSLSPGK
light: DIQMTQSPSSLSASVGDRVTITCKANEDINARLAWYQQKPGKAPKLLISGATNLVTGVPSRFSGSGSGKDYTLTISSLQPEDFATYYCQQYYSTPFTFGQGTKLEIKRTVAAPSVFIFPPSDEQLKSGTASVVCLLNNFYPREAKVQWKVDNALQSGNSQESVTEQDSKDSTYSLSSTLTLSKADYEKHKVYACEVTHQGLSSPVTKSFNRGEC
notes: Variant 7AG (IgG1, N297A L234A L235A P331S) with HC WH33F, GH55A, TH307P and LC NL31A, WL92Y; also called huCE7 variant LV40; huCE7-variant40
Regarding B1, the “ratio KD (KD sample / KD control)” value is 389 in the assay with human FcyRI/CD64 [1] and 1.2 with human FcRn / FCGRT&B2M [2]. For the same molecule, the Kd (in general, the free concentration of one partner at which half of the binding sites on the other are occupied at equilibrium, for simple one-to-one binding) turned out to be 0.0644 nM in assay [3], 15.8 nM with human FcyRI/CD64 [4] and 459 nM in the assay with human FcRn / FCGRT&B2M [5]. In addition, the koff (commonly the rate constant with which the complex falls apart) in assay [3] was 0.000472 s⁻¹. For the same molecule, the kon (in general, a measure of how fast the partners come together) in assay [3] was 7.32e+06 M⁻¹ s⁻¹. The binding result in the assay with CD20 on HEK293 cells is recorded as “no binding (tested: 20 µg/mL)”; with EGFR on HEK293 cells, “no binding (tested: 20 µg/mL)”; in [6] it was “no binding”; in assay [7], “no binding”; in [8] it was “no binding”.
